Laboratory results reported in the supplement of paper PMC9732359.
± gives the uncertainty stated by the source.

Test: protein stability index of a GFP-peptide fusion (yeast GPS) (PSI 1-4); higher = more stable; sorted into four equal gates, so the index is relative within each strain
Procedure, shortened: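 For each peptide, the protein stability index sums the read frequency in every gate after multiplying it by the gate number. Read frequencies came from plasmids that were PCR-amplified from each gate and Illumina-sequenced, with reads assigned to strains by barcodes. The gates were four equal bins of GFP/Cherry fluorescence ratio applied to mid-log yeast in leucine-free medium carrying a pooled library of tiled 17-residue yeast protein peptides fused downstream of GFP on a Cherry-expressing plasmid.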

Sequence	protein stability index (doa10∆)	protein stability index (pdr5∆)	protein stability index (san1∆)	protein stability index (ubr1∆)
NIKSSISNGNLATGPNL [YOR098C/NUP1]	2.77 ± 0.09	3.18 ± 0.084	2.99 ± 0.11	2.89 ± 0.065
IVTGNLVLDLLTWLSSF [IRR1]	2.63 ± 0.061	2.66 ± 0.041	2.05 ± 0.07	2.29 ± 0.039
PGKGILTTAREHHSSVK [FAS2]	3.07 ± 0.087	3.32 ± 0.076	3.17 ± 0.049	3.11 ± 0.067
KMSDGFNGADIRNCATE [RPT4]	3.43 ± 0.074	3.47 ± 0.059	3.35 ± 0.041	3.3 ± 0.043
QGVYGAVYETLISRMIF [BRR2]	2.46 ± 0.11	1.81 ± 0.093	1.36 ± 0.15	1.67 ± 0.045
ALASIQTFNFDSFENYF [RPN12]	2.65 ± 0.048	2.77 ± 0.069	2.51 ± 0.096	2.82 ± 0.054
KPYKQVKQIAPAELEGL [FAS2]	2.36 ± 0.061	2.14 ± 0.055	2.47 ± 0.083	1.9 ± 0.053
NYIPGNPLVTPASIVPE [COB]	1.81 ± 0.068	2.36 ± 0.071	2.42 ± 0.1	2.56 ± 0.086
SSPYAAMLAAQDVAAKC [RPS14B]	2.14 ± 0.055	1.42 ± 0.055	1.3 ± 0.082	1.73 ± 0.05
LIESGIGTHHAGLTRSD [BRR2]	3.31 ± 0.095	3.5 ± 0.13	2.82 ± 0.1	3.43 ± 0.062
ETHETNISNAKLANFFS [YAR002W/NUP60]	3.03 ± 0.12	3.15 ± 0.11	3.15 ± 0.073	3.2 ± 0.13
TTTTANINEVKKASDLV [NUT1]	3.01 ± 0.06	3.07 ± 0.067	2.84 ± 0.067	2.62 ± 0.074
MEELGIVTPVEKAVEEK [RPT3]	–	1.11 ± 0.094	–	1.47 ± 0.17
KMIEKIEKMSTIVQLCK [YIL149C/MLP2]	2.65 ± 0.092	2.37 ± 0.067	1.98 ± 0.17	2.36 ± 0.098
EILEKCAEGIFVVKLDT [GAL11]	–	–	–	3.72 ± 0.28
VMLRLLLVVIFKKTLRS [SRB4]	1.59 ± 0.068	1.56 ± 0.057	1.25 ± 0.098	1.23 ± 0.088
VNEIMYKCTAAMEKYLL [MTW1]	2.19 ± 0.046	2.44 ± 0.06	2.4 ± 0.07	2.29 ± 0.056
KDGAKFIEVRNFLGDKK [RPL9A]	–	–	–	1.35 ± 0.27
VGEEETSQKMKKMVYVL [SRP54]	3.31 ± 0.11	3.38 ± 0.11	3.31 ± 0.078	3.17 ± 0.077
KKKTTLEDFENFKGLAK [YIL149C/MLP2]	2.82 ± 0.031	2.99 ± 0.03	2.957 ± 0.024	2.909 ± 0.026
NTSESLLVDIQKYNQIQ [SMC2]	1.71 ± 0.07	1.84 ± 0.066	1.66 ± 0.15	1.68 ± 0.048
RKVVFPFQLDVADMLTP [UBP6]	2.29 ± 0.11	2.02 ± 0.12	2.57 ± 0.078	2.05 ± 0.096
ETEEIDPELLRSYIFGG [RPL5]	3.22 ± 0.073	3.44 ± 0.082	3.3 ± 0.046	3.23 ± 0.075
LEDQQRQQKLLLETKLR [SWI1]	2.81 ± 0.12	2.65 ± 0.14	3.12 ± 0.083	2.31 ± 0.17
KIAKRRQVYKPVLDNPF [POP3]	1.92 ± 0.077	2.33 ± 0.082	1.99 ± 0.11	2.08 ± 0.066

Sequence	protein stability index (doa10∆)	protein stability index (pdr5∆)	protein stability index (san1∆)	protein stability index (ubr1∆)
QQQQQQQQQQQNNSTGS [SSN2]	2.58 ± 0.06	2.78 ± 0.049	2.52 ± 0.11	2.85 ± 0.065
WFCPCHGSHYDISGRIR [RIP1]	–	2.31 ± 0.18	2.64 ± 0.25	–
NSISDFLGEQVNEPTKN [RPN1]	3.32 ± 0.12	3.15 ± 0.13	3.34 ± 0.1	3.18 ± 0.091
IVAKYDPPIIIFINYKQ [PRP28]	2.47 ± 0.075	1.77 ± 0.068	1.98 ± 0.12	1.96 ± 0.048
AAAGAAMIDAGALEEIT [FAS2]	2.72 ± 0.15	2.96 ± 0.11	–	2.73 ± 0.1
MVKGLLKSFTESTAGSA [ECM29]	3.34 ± 0.26	2.97 ± 0.18	2.81 ± 0.11	3.34 ± 0.096
NVRDDMKPSDNISTNTN [SSN2]	3.1 ± 0.045	2.94 ± 0.049	2.88 ± 0.051	3.04 ± 0.053
NLPILKNHFRKHWQERV [RPL13A]	2.33 ± 0.085	2.83 ± 0.073	2.31 ± 0.1	1.87 ± 0.089
QDKSKKIMNVTTDSLTK [YMR129W/POM152]	3.25 ± 0.064	2.97 ± 0.06	3.1 ± 0.034	3.21 ± 0.044
NGEEIVGFWKDDGDDED [MTR3]	2.52 ± 0.11	2.66 ± 0.074	2.89 ± 0.091	3.45 ± 0.087
IAEGQKKFATVPTGGAS [RPP2B]	2.81 ± 0.057	2.89 ± 0.056	2.69 ± 0.06	2.53 ± 0.04
DITSDQLLQRLNDMNTE [SMC3]	3.46 ± 0.16	–	3.24 ± 0.13	3.17 ± 0.12
IQTVVISLLALPHSPLW [YML031W/NDC1]	1.36 ± 0.076	1.58 ± 0.063	1.36 ± 0.1	2 ± 0.049
KSKLFEWKSEFVVPTFG [SNM1]	1.57 ± 0.058	1.63 ± 0.067	2.6 ± 0.08	1.32 ± 0.067
LSEYDAIQKKDNKDKEG [YOR098C/NUP1]	3.35 ± 0.13	3.33 ± 0.097	3.38 ± 0.11	3.38 ± 0.067
QTARKSTGGKAPRKQLA [HHT1]	3.18 ± 0.11	3.29 ± 0.098	3.05 ± 0.072	3.37 ± 0.086
SLIRNNLHAEGWPKLQL [ECM29]	1.15 ± 0.056	1.25 ± 0.081	1.32 ± 0.17	1.04 ± 0.085
KSKSSLDGKFSLFHTAV [RPN2]	2.86 ± 0.096	2.8 ± 0.072	2.86 ± 0.067	2.77 ± 0.067
NNVAYGKKRFRVVTVDG [SMC4]	1.93 ± 0.11	2.1 ± 0.13	1.78 ± 0.13	1.83 ± 0.069
EVEPALLLLQDYVTNPD [RPN1]	–	1.55 ± 0.11	–	1.14 ± 0.17
KQEIMMSDLFTFDWFIK [ISW2]	2.85 ± 0.075	2.6 ± 0.055	2.46 ± 0.07	2.9 ± 0.047
GTSLKVAPVSEIVNMVP [SIR2]	2.24 ± 0.089	2.65 ± 0.089	2.7 ± 0.069	2.37 ± 0.058
KALVLFVPVPALSAYHK [RPS7B]	2.13 ± 0.063	2.51 ± 0.072	2.12 ± 0.12	2.4 ± 0.041
DSYLILDTLPSEFDSRV [RPT5]	2.83 ± 0.09	3.48 ± 0.12	3.23 ± 0.062	3.1 ± 0.036
INVLTDQNPIQVVVDAI [RPS5]	2.19 ± 0.044	2.59 ± 0.038	2.44 ± 0.055	2.05 ± 0.031
